What follows are sequences tested on Escherichia coli TOP10 (assay: shrunken log2 fold change of peptide-encoding DNA abundance (4.5 h post-induction vs induction); higher = less antimicrobial activity (less host growth inhibition)). Conditions: time post-induction: 4.5 h; library: site-saturation at positions 5, 18, 19, 20.
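Note: peptides expressed intracellularly from a pBAD plasmid library in pooled LB shake-flask culture, induced with 0.3% L-arabinose, DNA abundance read by NGS, three biological replicates, DESeq2 with apeglm shrinkage.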

| Sequence | shrunken log2 fold change |
| --- | --- |
| RRIRNRPPRLPRPRPRPTFQPRP | 0.0675 |
| RRIRNRPPRLPRPRPRPTGRPRP | 0.0525 |
| RRIRNRPPRLPRPRPRPTGTPRP | 0.0526 |
| RRIRNRPPRLPRPRPRPTHEPRP | 0.0695 |
| RRIRNRPPRLPRPRPRPTHPPRP | -0.235 |
| RRIRNRPPRLPRPRPRPTHSPRP | -0.232 |
| RRIRNRPPRLPRPRPRPTIHPRP | -0.46 |
| RRIRNRPPRLPRPRPRPTINPRP | -0.515 |
| RRIRNRPPRLPRPRPRPTKQPRP | -0.102 |
| RRIRNRPPRLPRPRPRPTMDPRP | -0.266 |
| RRIRNRPPRLPRPRPRPTMEPRP | 0.274 |
| RRIRNRPPRLPRPRPRPTMVPRP | -0.0433 |
| RRIRNRPPRLPRPRPRPTNAPRP | -0.182 |
| RRIRNRPPRLPRPRPRPTNCPRP | 0.143 |
| RRIRNRPPRLPRPRPRPTPDPRP | 0.17 |
| RRIRNRPPRLPRPRPRPTPYPRP | -0.243 |
| RRIRNRPPRLPRPRPRPTQTPRP | -0.0444 |
| RRIRNRPPRLPRPRPRPTTNPRP | 0.365 |
| RRIRNRPPRLPRPRPRPTTRPRP | 0.0475 |
| RRIRNRPPRLPRPRPRPTVNPRP | -0.382 |
| RRIRNRPPRLPRPRPRPTVTPRP | 0.354 |
| RRIRNRPPRLPRPRPRPTWWPRP | 0.326 |
| RRIRNRPPRLPRPRPRPTYMPRP | -0.596 |
| RRIRNRPPRLPRPRPRPTYRPRP | -0.0805 |
| RRIRNRPPRLPRPRPRPVEPPRP | 0.173 |

| Sequence | shrunken log2 fold change |
| --- | --- |
| RRIRNRPPRLPRPRPRPVFGPRP | 0.106 |
| RRIRNRPPRLPRPRPRPVFWPRP | 0.219 |
| RRIRNRPPRLPRPRPRPVGAPRP | 0.0749 |
| RRIRNRPPRLPRPRPRPVGFPRP | 0.165 |
| RRIRNRPPRLPRPRPRPVGIPRP | -0.2 |
| RRIRNRPPRLPRPRPRPVGSPRP | 0.0409 |
| RRIRNRPPRLPRPRPRPVIRPRP | -0.164 |
| RRIRNRPPRLPRPRPRPVKQPRP | 0.00788 |
| RRIRNRPPRLPRPRPRPVLCPRP | 0.0343 |
| RRIRNRPPRLPRPRPRPVLGPRP | 0.00359 |
| RRIRNRPPRLPRPRPRPVNCPRP | -0.147 |
| RRIRNRPPRLPRPRPRPVPGPRP | 0.176 |
| RRIRNRPPRLPRPRPRPVRLPRP | 0.0814 |
| RRIRNRPPRLPRPRPRPVSCPRP | -0.129 |
| RRIRNRPPRLPRPRPRPVVRPRP | 0.12 |
| RRIRNRPPRLPRPRPRPVVSPRP | -0.153 |
| RRIRNRPPRLPRPRPRPVWVPRP | 0.0909 |
| RRIRNRPPRLPRPRPRPVYMPRP | -0.0311 |
| RRIRNRPPRLPRPRPRPVYRPRP | -0.815 |
| RRIRNRPPRLPRPRPRPWAMPRP | -0.175 |
| RRIRNRPPRLPRPRPRPWCLPRP | -0.472 |
| RRIRNRPPRLPRPRPRPWCQPRP | -0.0618 |
| RRIRNRPPRLPRPRPRPWCWPRP | -0.0119 |
| RRIRNRPPRLPRPRPRPWECPRP | -0.00145 |
| RRIRNRPPRLPRPRPRPWGFPRP | -0.103 |

| Sequence | shrunken log2 fold change |
| --- | --- |
| RRIRNRPPRLPRPRPRPWITPRP | -0.0261 |
| RRIRNRPPRLPRPRPRPWMQPRP | -0.218 |
| RRIRNRPPRLPRPRPRPWNQPRP | -0.0135 |
| RRIRNRPPRLPRPRPRPWNTPRP | 0.0705 |
| RRIRNRPPRLPRPRPRPWPIPRP | -0.0597 |
| RRIRNRPPRLPRPRPRPWPTPRP | 0.216 |
| RRIRNRPPRLPRPRPRPWQSPRP | -0.0702 |
| RRIRNRPPRLPRPRPRPWRAPRP | 0.0962 |
| RRIRNRPPRLPRPRPRPWRTPRP | -0.323 |
| RRIRNRPPRLPRPRPRPWSEPRP | 0.0632 |
| RRIRNRPPRLPRPRPRPWSVPRP | -0.328 |
| RRIRNRPPRLPRPRPRPWTSPRP | 0.0238 |
| RRIRNRPPRLPRPRPRPWVCPRP | 0.037 |
| RRIRNRPPRLPRPRPRPWWRPRP | -0.0647 |
| RRIRNRPPRLPRPRPRPYACPRP | -0.167 |
| RRIRNRPPRLPRPRPRPYCDPRP | -0.0156 |
| RRIRNRPPRLPRPRPRPYCVPRP | -0.172 |
| RRIRNRPPRLPRPRPRPYDMPRP | -0.00776 |
| RRIRNRPPRLPRPRPRPYEMPRP | -0.0417 |
| RRIRNRPPRLPRPRPRPYESPRP | -0.829 |
| RRIRNRPPRLPRPRPRPYFLPRP | -0.897 |
| RRIRNRPPRLPRPRPRPYFTPRP | -0.47 |
| RRIRNRPPRLPRPRPRPYFWPRP | -0.0871 |
| RRIRNRPPRLPRPRPRPYGGPRP | -0.0102 |
| RRIRNRPPRLPRPRPRPYGPPRP | -0.00663 |

| Sequence | shrunken log2 fold change |
| --- | --- |
| RRIRNRPPRLPRPRPRPYHNPRP | -0.275 |
| RRIRNRPPRLPRPRPRPYIPPRP | -0.36 |
| RRIRNRPPRLPRPRPRPYKWPRP | -0.233 |
| RRIRNRPPRLPRPRPRPYMAPRP | -0.0692 |
| RRIRNRPPRLPRPRPRPYMPPRP | -0.0173 |
| RRIRNRPPRLPRPRPRPYNQPRP | -0.597 |
| RRIRNRPPRLPRPRPRPYNTPRP | -1.49 |
| RRIRNRPPRLPRPRPRPYPPPRP | -0.671 |
| RRIRNRPPRLPRPRPRPYRPPRP | -0.379 |
| RRIRNRPPRLPRPRPRPYTYPRP | -0.68 |
| RRIRNRPPRLPRPRPRPYWAPRP | -0.0304 |
| RRIRPRPPRLPRPRPRPAAGPRP | 0.287 |
| RRIRPRPPRLPRPRPRPACGPRP | 0.839 |
| RRIRPRPPRLPRPRPRPACVPRP | 0.26 |
| RRIRPRPPRLPRPRPRPADSPRP | -0.0563 |
| RRIRPRPPRLPRPRPRPAFIPRP | -0.222 |
| RRIRPRPPRLPRPRPRPAFTPRP | -0.0147 |
| RRIRPRPPRLPRPRPRPAIVPRP | 0.119 |
| RRIRPRPPRLPRPRPRPAKQPRP | 0.0651 |
| RRIRPRPPRLPRPRPRPALWPRP | 0.612 |
| RRIRPRPPRLPRPRPRPAMLPRP | 0.233 |
| RRIRPRPPRLPRPRPRPAMPPRP | 0.246 |
| RRIRPRPPRLPRPRPRPAMQPRP | 0.11 |
| RRIRPRPPRLPRPRPRPAMRPRP | 0.973 |
| RRIRPRPPRLPRPRPRPANKPRP | -0.267 |

| Sequence | shrunken log2 fold change |
| --- | --- |
| RRIRPRPPRLPRPRPRPANSPRP | 0.00247 |
| RRIRPRPPRLPRPRPRPAPCPRP | 0.236 |
| RRIRPRPPRLPRPRPRPAPSPRP | 0.51 |
| RRIRPRPPRLPRPRPRPAQHPRP | 0.223 |
| RRIRPRPPRLPRPRPRPASNPRP | -0.231 |
| RRIRPRPPRLPRPRPRPAVFPRP | 0.373 |
| RRIRPRPPRLPRPRPRPAVHPRP | 0.0984 |
| RRIRPRPPRLPRPRPRPAVWPRP | 0.602 |
| RRIRPRPPRLPRPRPRPAWGPRP | 0.503 |
| RRIRPRPPRLPRPRPRPAWIPRP | 0.0812 |
| RRIRPRPPRLPRPRPRPAYAPRP | 0.16 |
| RRIRPRPPRLPRPRPRPAYPPRP | 0.0124 |
| RRIRPRPPRLPRPRPRPAYYPRP | -0.0697 |
| RRIRPRPPRLPRPRPRPCCLPRP | -0.439 |
| RRIRPRPPRLPRPRPRPCDHPRP | -0.128 |
| RRIRPRPPRLPRPRPRPCDWPRP | 0.0592 |
| RRIRPRPPRLPRPRPRPCEDPRP | -0.119 |
| RRIRPRPPRLPRPRPRPCEHPRP | 0.099 |
| RRIRPRPPRLPRPRPRPCEPPRP | -0.00302 |
| RRIRPRPPRLPRPRPRPCERPRP | 0.0579 |
| RRIRPRPPRLPRPRPRPCFIPRP | -0.735 |
| RRIRPRPPRLPRPRPRPCFMPRP | -0.269 |
| RRIRPRPPRLPRPRPRPCFRPRP | 0.00938 |
| RRIRPRPPRLPRPRPRPCGHPRP | -0.0439 |
| RRIRPRPPRLPRPRPRPCHGPRP | -0.0271 |

| Sequence | shrunken log2 fold change |
| --- | --- |
| RRIRPRPPRLPRPRPRPCHIPRP | -0.821 |
| RRIRPRPPRLPRPRPRPCIQPRP | -0.209 |
| RRIRPRPPRLPRPRPRPCKHPRP | -0.131 |
| RRIRPRPPRLPRPRPRPCKPPRP | -0.136 |
| RRIRPRPPRLPRPRPRPCKTPRP | 0.106 |
| RRIRPRPPRLPRPRPRPCLWPRP | 0.0902 |
| RRIRPRPPRLPRPRPRPCMGPRP | -0.398 |
| RRIRPRPPRLPRPRPRPCMIPRP | -0.692 |
| RRIRPRPPRLPRPRPRPCMPPRP | -0.534 |
| RRIRPRPPRLPRPRPRPCNCPRP | -0.107 |
| RRIRPRPPRLPRPRPRPCNHPRP | -0.227 |
| RRIRPRPPRLPRPRPRPCNNPRP | -0.177 |
| RRIRPRPPRLPRPRPRPCQQPRP | -0.119 |
| RRIRPRPPRLPRPRPRPCRCPRP | 0.00981 |
| RRIRPRPPRLPRPRPRPCSDPRP | -0.131 |
| RRIRPRPPRLPRPRPRPCTGPRP | -0.00227 |
| RRIRPRPPRLPRPRPRPCVMPRP | -0.162 |
| RRIRPRPPRLPRPRPRPCVVPRP | 1.73 |
| RRIRPRPPRLPRPRPRPCWAPRP | 0.21 |
| RRIRPRPPRLPRPRPRPCWHPRP | -0.261 |
| RRIRPRPPRLPRPRPRPCWVPRP | 0.143 |
| RRIRPRPPRLPRPRPRPDCGPRP | 0.093 |
| RRIRPRPPRLPRPRPRPDEAPRP | -0.152 |
| RRIRPRPPRLPRPRPRPDFHPRP | -0.26 |
| RRIRPRPPRLPRPRPRPDGEPRP | 0.0766 |
